Source: paper PMC6255212, “Coupled molecular dynamics mediate long- and short-range epistasis between mutations that affect stability and aggregation kinetics” (Proceedings of the National Academy of Sciences of the …, 2018)

substrate: O=CCO; test: steady-state enzyme kinetics; type: biochemical, Escherichia coli; details: 50 mM Li-HPA (lithium beta-hydroxypyruvate, saturating), 4-80 mM glycolaldehyde

Protein	Km	kcat
Escherichia coli transketolase (TK) (Escherichia coli K-12; A282P/H192P/I365L) (protein, homodimer of 70- to 74-kDa monomers; holo enzyme with ThDP and Mg2+) SSRKELANAIRALSMDAVQKAKSGHPGAPMGMADIAEVLWRDFLKHNPQNPSWADRDRFVLSNGHGSMLIYSLLHLTGYDLPMEELKNFRQLHSKTPGHPEVGYTAGVETTTGPLGQGIANAVGMAIAEKTLAAQFNRPGHDIVDHYTYAFMGDGCMMEGISHEVCSLAGTLKLGKLIAFYDDNGISIDGPVEGWFTDDTAMRFEAYGWHVIRDIDGHDAASIKRAVEEARAVTDKPSLLMCKTIIGFGSPNKAGTHDSHGAPLGDAEIALTREQLGWKYPPFEIPSEIYAQWDAKEAGQAKESAWNEKFAAYAKAYPQEAAEFTRRMKGEMPSDFDAKAKEFIAKLQANPAKIASRKASQNALEAFGPLLPEFLGGSADLAPSNLTLWSGSKAINEDAAGNYIHYGVREFGMTAIANGISLHGGFLPYTSTFLMFVEYARNAVRMAALMKQRQVMVYTHDSIGLGEDGPTHQPVEQVASLRVTPNMSTWRPCDQVESAVAWKYGVERQDGPTALILSRQNLAQQERTEEQLANIARGGYVLKDCAGQPELIFIATGSEVELAVAAYEKLTAEGVKARVVSMPSTDAFDKQDAAYRESVLPKAVTARVAVEAGIADYWYKYVGLNGAIVGMTTFGESAPAELLFEEFGFTVDNVVAKAKELL	19.5(2.1) mM	68.9(2.6) s-1
Escherichia coli transketolase (TK) (Escherichia coli K-12; A282P/G506A/H192P) (protein, homodimer of 70- to 74-kDa monomers; holo enzyme with ThDP and Mg2+) SSRKELANAIRALSMDAVQKAKSGHPGAPMGMADIAEVLWRDFLKHNPQNPSWADRDRFVLSNGHGSMLIYSLLHLTGYDLPMEELKNFRQLHSKTPGHPEVGYTAGVETTTGPLGQGIANAVGMAIAEKTLAAQFNRPGHDIVDHYTYAFMGDGCMMEGISHEVCSLAGTLKLGKLIAFYDDNGISIDGPVEGWFTDDTAMRFEAYGWHVIRDIDGHDAASIKRAVEEARAVTDKPSLLMCKTIIGFGSPNKAGTHDSHGAPLGDAEIALTREQLGWKYPPFEIPSEIYAQWDAKEAGQAKESAWNEKFAAYAKAYPQEAAEFTRRMKGEMPSDFDAKAKEFIAKLQANPAKIASRKASQNAIEAFGPLLPEFLGGSADLAPSNLTLWSGSKAINEDAAGNYIHYGVREFGMTAIANGISLHGGFLPYTSTFLMFVEYARNAVRMAALMKQRQVMVYTHDSIGLGEDGPTHQPVEQVASLRVTPNMSTWRPCDQVESAVAWKYAVERQDGPTALILSRQNLAQQERTEEQLANIARGGYVLKDCAGQPELIFIATGSEVELAVAAYEKLTAEGVKARVVSMPSTDAFDKQDAAYRESVLPKAVTARVAVEAGIADYWYKYVGLNGAIVGMTTFGESAPAELLFEEFGFTVDNVVAKAKELL	20.2(1.5) mM	54.3(1.4) s-1
Escherichia coli transketolase (TK) (Escherichia coli K-12; A282P/G506A/H192P/I365L) (protein, homodimer of 70- to 74-kDa monomers; holo enzyme with ThDP and Mg2+) SSRKELANAIRALSMDAVQKAKSGHPGAPMGMADIAEVLWRDFLKHNPQNPSWADRDRFVLSNGHGSMLIYSLLHLTGYDLPMEELKNFRQLHSKTPGHPEVGYTAGVETTTGPLGQGIANAVGMAIAEKTLAAQFNRPGHDIVDHYTYAFMGDGCMMEGISHEVCSLAGTLKLGKLIAFYDDNGISIDGPVEGWFTDDTAMRFEAYGWHVIRDIDGHDAASIKRAVEEARAVTDKPSLLMCKTIIGFGSPNKAGTHDSHGAPLGDAEIALTREQLGWKYPPFEIPSEIYAQWDAKEAGQAKESAWNEKFAAYAKAYPQEAAEFTRRMKGEMPSDFDAKAKEFIAKLQANPAKIASRKASQNALEAFGPLLPEFLGGSADLAPSNLTLWSGSKAINEDAAGNYIHYGVREFGMTAIANGISLHGGFLPYTSTFLMFVEYARNAVRMAALMKQRQVMVYTHDSIGLGEDGPTHQPVEQVASLRVTPNMSTWRPCDQVESAVAWKYAVERQDGPTALILSRQNLAQQERTEEQLANIARGGYVLKDCAGQPELIFIATGSEVELAVAAYEKLTAEGVKARVVSMPSTDAFDKQDAAYRESVLPKAVTARVAVEAGIADYWYKYVGLNGAIVGMTTFGESAPAELLFEEFGFTVDNVVAKAKELL	22.7(2.2) mM	58.3(2.1) s-1
